These results are taken from the supplement of paper PMC10567573.

The data set can be described thus: protein stability index of a GFP-peptide fusion (GPS, HEK-293T) (PSI 1-6); higher = more stable.
Setting [1] is: treatment: DMSO, c terminus: native.
[2] abbreviates: treatment: MLN4924 1 uM, 8 h, c terminus: native.
Where [3] appears, read: treatment: DMSO, c terminus: a fixed tail appended.
Where [4] appears, read: treatment: MLN4924 1 uM, 8 h, c terminus: a fixed tail appended.

± gives the standard deviation.
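Further: 24-mer peptide tiles fused after GFP, lentivirally expressed, FACS-sorted into six equal bins by GFP/DsRed ratio, decoded by Illumina sequencing, PSI is the read-weighted mean bin number.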

Regarding SQSPRAAGPREGHSHSHHHHHRG [PBXIP1], the protein stability index amounted to 3.02 ± 0.69 under setting [1] and 4.03 ± 0.49 under setting [2].

For the sequence SQSWHTESLPVSLGPESWQQIAMD [BCL2L13], the protein stability index amounted to 3.79 ± 0.24 under setting [3] and 3.93 ± 0.23 under setting [4].

Regarding SQVTATSGNGDFGDWSAFNQAPSG [CLINT1], the protein stability index came to 4.59 ± 0.068 under setting [3] and 4.36 ± 0.21 under setting [4].

As to SRIQEWYEFQIPYICPDYQSYFKT [KRT36], the protein stability index reads like this: under setting [3], 2.29 ± 0.31; under setting [4], 2.17 ± 0.36.

As for SRPQSSRPVLLSKIEGHQDAVTAA [WDFY1], the protein stability index is 4.28 ± 0.33 under setting [3] and 4.3 ± 0.35 under setting [4].

In the case of SRRDESYSRGYRNRRSSRETREYA [RBMY1A1], the protein stability index was determined as 4.5 ± 0.32 under setting [3] and 4.64 ± 0.31 under setting [4].

Regarding SRRSGKTSAVLKAGRQSVSGRKNS [C6orf223], the protein stability index by setting is: under setting [3], 4.64 ± 0.28; under setting [4], 4.78 ± 0.25.

SRTTCLFLHLRTHTEERPYECNHC [ZNF8]: the protein stability index came to 2.62 ± 0.45 under setting [3] and 2.8 ± 0.43 under setting [4].

In the case of SRVTMILFVLELEWVLSTGQDKQF [WDFY2], the protein stability index is, setting by setting: under setting [3], 3.1 ± 0.31; under setting [4], 3.09 ± 0.66.

Take SSFLSFAELFSYVLQDRAAKGSLG [FEM1A]: the protein stability index turned out to be 2.58 ± 0.35 under setting [3] and 2.55 ± 0.81 under setting [4].

In the case of SSISHRFHKDCASRVNNASYCPHC [EHMT1], the protein stability index turned out to be 3.48 ± 0.67 under setting [3] and 4.11 ± 0.56 under setting [4].

Take SSITEAVPSESEPPALQNNLLSPL [NFE2L1]: the protein stability index was found to be 4.75 ± 0.12 under setting [3] and 4.75 ± 0.21 under setting [4].

As to SSKVSGVLKKLAQSRRTALATSPI [YJU2B], the protein stability index runs as follows: under setting [3], 2.94 ± 0.22; under setting [4], 3 ± 0.26.

For the sequence SSSSFDPSVFDGLGDLLMPTMAPA [SNAP91], the protein stability index turned out to be 3.55 ± 0.25 under setting [3] and 3.72 ± 0.33 under setting [4].

Turning to SVDGLTLSPDPEERPGAEGAPLLP [ACBD3], the protein stability index is 5.46 ± 0.19 under setting [3] and 5.54 ± 0.18 under setting [4].

SVNFDGETIEGAPPLWAASAAGHL [FEM1C]: the protein stability index was determined as 3.52 ± 0.23 under setting [3] and 3.6 ± 0.23 under setting [4].

For the sequence SVNSDCETYMSADDLRINLWHLAI [PPP2R2C], the protein stability index stood at 2.52 ± 0.54 under setting [3] and 2.29 ± 0.21 under setting [4].

SVRISFAKGWGPCYSRQFITSCPC [SMAD6] had a protein stability index under setting [3] of 2.79 ± 0.67 and a protein stability index under setting [4] of 2.78 ± 0.85.

As for SVSVWDLAAPSLHVKEQLPCAGLN [TLE6], the protein stability index by setting is: under setting [3], 2.91 ± 0.2; under setting [4], 3.08 ± 0.3.

In the case of SYAHSVEDTHVQIGQVHEEFKQNI [FCHO1], the protein stability index worked out at 4.55 ± 0.25 under setting [3] and 4.7 ± 0.081 under setting [4].

As for SYRTESAQRQACMYASSAPPSEPV [TBX5], the protein stability index amounted to 3.79 ± 0.16 under setting [3] and 4.07 ± 0.24 under setting [4].

TATCTTNNNPNSCVNIKKIFTDV [KCNA3] had a protein stability index under setting [1] of 4.08 ± 0.24 and a protein stability index under setting [2] of 3.97 ± 0.11.

As for TDAFLDRPPTPLFIPAKTGKDVAT [RSPH3], the protein stability index was 4.58 ± 0.18 under setting [3] and 4.6 ± 0.22 under setting [4].

Take TDHILESLYRDIRDIQDENQLLVA [STX11]: the protein stability index was 3.22 ± 0.3 under setting [3] and 3.24 ± 0.39 under setting [4].

Take TDRSFNIVDIKPANMEDLTEVITA [PPP2R2C]: the protein stability index amounted to 4.42 ± 0.14 under setting [3] and 4.37 ± 0.15 under setting [4].

In the case of TEDIQTRQYRSIEVLIGAGYSTPA [SRPK2], the protein stability index is, setting by setting: under setting [3], 2.94 ± 0.4; under setting [4], 2.87 ± 0.5.

TEKKQTKVEFPEARIYEETLNILL [KCTD10] returned a protein stability index under setting [3] of 2.12 ± 0.1 and a protein stability index under setting [4] of 2.23 ± 0.33.

For the sequence TELPELLKLYYRRLFPYSQYYRWL [PRIM1], the protein stability index was 2.93 ± 0.79 under setting [3] and 2.47 ± 0.67 under setting [4].

Take TEPWGGTAIRPLKILPWSPEKIGT [PNLIPRP1]: the protein stability index under setting [3] amounted to 3.45 ± 0.26 and the protein stability index under setting [4] was 3.65 ± 0.36.

Regarding TFFCTNATIHGAIRLVCSRGNRLK [SCNN1D], the protein stability index worked out at 2.54 ± 0.27 under setting [3] and 2.41 ± 0.41 under setting [4].

As to TGEAARPHKGLNLHPLLSGRLGRW [PCDHGC5], the protein stability index was determined as 2.77 ± 0.17 under setting [3] and 2.9 ± 0.23 under setting [4].

Turning to TGGAAGAGGAGRGEDEENREHRVR [KCTD13], the protein stability index amounted to 5.24 ± 0.26 under setting [3] and 5.53 ± 0.32 under setting [4].

On to TGLVYDQNMMNHCNLWDSHHPEVP [HDAC6], for which the protein stability index reads like this: under setting [3], 3.08 ± 0.29; under setting [4], 3.25 ± 0.18.

TGNYRKGNAHLGYSLVTHIPAGAR [ADAMTSL2] gave a protein stability index under setting [3] of 2.95 ± 0.17 and a protein stability index under setting [4] of 2.69 ± 0.3.

As for TIEDEDTKVRKQEIIKVTEQLIEA [CAMK2A], the protein stability index worked out at 5.27 ± 0.28 under setting [3] and 5.02 ± 0.25 under setting [4].

With TKITSKHVKMMLSGVCLFAVFIAL [PTGFR], the protein stability index is, setting by setting: under setting [3], 3.2 ± 0.24; under setting [4], 2.78 ± 0.1.

TKKGDLQWNAGEKKLTGGANWQPK [SNAP91]: the protein stability index under setting [3] turned out to be 4.07 ± 0.13 and the protein stability index under setting [4] turned out to be 4.26 ± 0.23.

TKRVRQLLDLDPEVECLKANTNEV [GOLPH3] showed a protein stability index under setting [3] of 4.29 ± 0.32 and a protein stability index under setting [4] of 4.62 ± 0.22.

Consider TLCAMLPLLLFTYLNSFLHQRIPQ [SLC29A1], for which the protein stability index was determined as 3.18 ± 0.14 under setting [3] and 3.06 ± 0.17 under setting [4].

With TLPTLPAKVYVGVKQEIAEMRIPA [NCF4], the protein stability index was 3.36 ± 0.34 under setting [3] and 3.7 ± 0.39 under setting [4].

On to TLRLRENCVLSSSPNPFPEISRGE [ZNF8], for which the protein stability index came out at 3.61 ± 0.33 under setting [3] and 3.66 ± 0.33 under setting [4].

For TLSLKQTILDKEEKQRRNVAKNY [TTC32], the protein stability index was 4.27 ± 0.36 under setting [1] and 4.29 ± 0.54 under setting [2].

Regarding TLYLIVALATVSLLSLVTFTFLSA [PCDHGC5], the protein stability index is, setting by setting: under setting [3], 3.2 ± 0.13; under setting [4], 3.26 ± 0.29.

In the case of TNGELNTDDPTAGRSNAPITAPTE [CSNK1G3], the protein stability index reads like this: under setting [3], 5.41 ± 0.15; under setting [4], 5.41 ± 0.16.

Consider TNGHGGEAAEGKSLGSALKPGEGR [TRIM29], for which the protein stability index was 5.08 ± 0.24 under setting [3] and 5.27 ± 0.33 under setting [4].

TNGSFSPSGNNGSVNWRTGSFHGP [DLC1]: the protein stability index by setting is: under setting [3], 3.09 ± 0.3; under setting [4], 3.11 ± 0.23.

With TNLLEGAVAFMPEDITKGTQSLPT [AUP1], the protein stability index under setting [3] was found to be 4.55 ± 0.12 and the protein stability index under setting [4] was found to be 4.47 ± 0.17.

TPGSRIESILMSLPLTARWEYMHS [CPOX]: the protein stability index is, setting by setting: under setting [3], 2.33 ± 0.27; under setting [4], 2.24 ± 0.12.

In the case of TPYPNLYPDQSPSEDWTMEERFRP [CLCN6], the protein stability index under setting [3] came out at 3.85 ± 0.26 and the protein stability index under setting [4] was 4.07 ± 0.15.

For the sequence TQHVNNWMKHNVADSQITTIGNLV [PTPRD], the protein stability index was 2.9 ± 0.44 under setting [3] and 3.12 ± 0.42 under setting [4].

Regarding TRVSQLGLQVEGLRRRLEELQQEL [LRRC45], the protein stability index under setting [3] came out at 4.36 ± 0.24 and the protein stability index under setting [4] was 4.55 ± 0.46.

For TSEVDKRRTRPRHHHGRSRPDRSS [CHGB], the protein stability index was found to be 5.07 ± 0.37 under setting [3] and 5.06 ± 0.31 under setting [4].
